Experimental data as given in PMC13134850.

B1: Ncr-1 fusion protein (Ncr-1 Ig) (mouse) (Fc fusion)
chain: QRINTEKETLPKPIIWAKPSIMVTNGNSVNIWCQGAQSASEYQLYFEGSFFALERPKPSRSMNKVRFFISQMTSHTAGIYTCFYQSGELWSKSSNPLKLVVTGLYDTPNLWVYPRPEVTLGENVTFFCQLKTATSKFFLLKERGSNHIQNKYGNIQAEFPMGPVTRAHRGTYRCFGSYNDYAWSFPSEPVTLLITGGVENSSLAPTDPTSSLDYWEFDLSTNESGLQKDSAFWDHTTQN

Biological target: RadD adhesin of Fusobacterium nucleatum subsp. nucleatum ATCC 23726 (Fusobacterium nucleatum subsp. nucleatum ATCC 23726 (endogenous on the bacteria))
Test: flow cytometry on cells

Molecule | fold increase in binding to ATCC 23726 ∆fad-I [fold]
NKp46 fusion protein (NKp46 Ig) (human) (from UniProt O76036 22-258) (Fc fusion) | 100
B1 | 100
